Assay [1] has as its target high-affinity receptors for VEGF in HUVECs. The experiment in a line: cell-based or functional assay.
Assay [2] addresses Flt-1 VEGF receptor (human (on HUVEC)) (UniProt P17948). Kind of assay: cell-based or functional assay.
Sequence of UniProt P17948 (P17948 27-1338): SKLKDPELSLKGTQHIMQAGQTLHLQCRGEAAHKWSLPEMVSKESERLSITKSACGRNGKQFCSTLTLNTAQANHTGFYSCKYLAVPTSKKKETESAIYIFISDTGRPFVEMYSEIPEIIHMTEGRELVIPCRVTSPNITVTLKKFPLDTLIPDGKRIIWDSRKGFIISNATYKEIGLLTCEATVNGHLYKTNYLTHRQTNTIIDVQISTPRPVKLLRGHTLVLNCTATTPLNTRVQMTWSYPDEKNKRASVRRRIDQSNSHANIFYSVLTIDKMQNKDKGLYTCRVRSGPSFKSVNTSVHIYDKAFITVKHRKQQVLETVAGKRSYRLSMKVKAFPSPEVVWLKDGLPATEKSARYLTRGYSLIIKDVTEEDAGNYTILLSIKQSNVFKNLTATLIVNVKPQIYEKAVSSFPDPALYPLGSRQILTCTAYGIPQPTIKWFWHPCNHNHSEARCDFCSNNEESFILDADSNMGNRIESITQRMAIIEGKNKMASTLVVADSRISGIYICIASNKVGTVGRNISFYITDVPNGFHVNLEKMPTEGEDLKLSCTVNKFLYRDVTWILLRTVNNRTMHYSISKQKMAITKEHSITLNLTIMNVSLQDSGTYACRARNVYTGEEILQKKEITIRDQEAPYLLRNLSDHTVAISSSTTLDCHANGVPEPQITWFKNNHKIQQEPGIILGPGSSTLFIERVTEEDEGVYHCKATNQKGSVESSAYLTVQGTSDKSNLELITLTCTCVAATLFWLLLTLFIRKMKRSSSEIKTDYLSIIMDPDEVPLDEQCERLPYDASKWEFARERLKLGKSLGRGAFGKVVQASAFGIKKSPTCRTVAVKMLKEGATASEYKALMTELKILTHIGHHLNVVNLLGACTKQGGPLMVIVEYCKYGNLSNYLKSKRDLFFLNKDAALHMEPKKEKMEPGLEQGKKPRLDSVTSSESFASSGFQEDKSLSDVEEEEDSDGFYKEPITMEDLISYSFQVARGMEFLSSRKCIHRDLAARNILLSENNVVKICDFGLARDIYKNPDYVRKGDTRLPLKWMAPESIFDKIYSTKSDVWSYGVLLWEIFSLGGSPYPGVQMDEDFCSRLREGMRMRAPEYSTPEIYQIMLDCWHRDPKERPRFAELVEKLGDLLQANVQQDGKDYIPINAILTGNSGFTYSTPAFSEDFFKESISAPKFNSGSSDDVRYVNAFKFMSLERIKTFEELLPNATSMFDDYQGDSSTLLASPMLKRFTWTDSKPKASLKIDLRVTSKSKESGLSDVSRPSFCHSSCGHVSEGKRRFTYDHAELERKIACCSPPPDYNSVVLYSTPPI

In assay [1], “recombinant human VEGF (vascular endothelial growth factor) (from UniProt P15692 27-191) (ligand)” displayed an arachidonic acid release from prelabelled HUVEC, concentration of maximum effect of 10 to 20 ng/mL; an arachidonic acid release from prelabelled HUVEC, half-maximum effect of 2.5 to 5 ng/mL; a mean increase in release of labelled arachidonic acid above basal level of 1.6 fold.

B1: recombinant placenta growth factor (P1GF) (ligand, UniProt P49763-2 21-149, looked up)
chain: AVPPQQWALSAGNGSSEVEVVPFQEVWGRSYCRALERLVDVVSEYPSEVEHMFSPSCVSLLRCTGCCGDENLHCVPVETANVTMQLLKIRSGDRPSYVELTFSQHVRCECRPLREKMKPERCGDAVPRR
In turn, B1 registered a mean fold increase in 6-keto PGF1a above control, 60 min with 60 ng/ml P1GF in assay [2] of 1.3 fold.

The values above are taken from US20120308522A1.
